The DeepSol protein solubility set

Test: soluble on expression in E. coli; label from the status in PepcDB or PDB records

Sequence	soluble on expression in E. coli
MGSDKIHHHHHHMGIRILNDLMLDKSALLFGVSKYLEKGIITGNILIHKSLLAELEKESNDGLVSAEIALDEVKKLKDITERILVNFEIVGENSKKGEANELSREYCLEKGCIMVTADETQKKICDVMGIQYSFLQPLEQSLSFESFFDDETMSLHIKEDTVPRAKKGKPGNWKFVNLSNKPMLSVDVKRIANEIINGVRFIKGSFIEIERKGSLIIQLGNYRVVITRPPLSDGWEITITRPVVRKRLEDYGLDERLIKRLEERAEGIIIAGAPGMGKTTFAQALSEYYMRLGKIVKTIESPRDMHLPPEITQYSKNYAEIGELHDILLLSRPDYTVYDEMRNDEDFKLYIDLRLAGIGMVGVVHATSPIDAIHRFVNRVDIGTIPNILDTIIFINSGNVSKVYTLEITVKVPAGLKEADLARPVVEIKDLVTGNTEYEIYVFGEQTMIVPVNRGITLNNMEFKISKIVNNIIPKATVKYEDGEYVIVIPKEEIGKYNRKLVQRLKRLEKKNNIKIKIKLSD	not soluble
MAQVMYATPDNMLSRFGEQDLTLLTEREDSVPGEINLALLEQALSDASAEIDGYIAGRYVLPLTTVPAVLERNCCDIARYFLYGDKAPEQVEKRYAAVVKFLTAVSKGDISLGLATTGETADQSELVISIESAGSVFGRKSAKGFI	soluble
MSEMTPREIVSELDQHIIGQADAKRAVAIALRNRWRRMQLQEPLRHEVTPKNILMIGPTGVGKTEIARRLAKLANAPFIKVEATKFTEVGYVGKEVDSIIRDLTDSAGGAIDAVEQNGIVFIDEIDKICKKGEYSGADVSREGVQRDLLPLVEGSTVSTKHGMVKTDHILFIASGAFQVARPSDLIPELQGRLPIRVELTALSAADFERILTEPHASLTEQYKALMATEGVNIAFTTDAVKKIAEAAFRVNEKTENIGARRLHTVMERLMDKISFSASDMNGQTVNIDAAYVADALGEVVENEDLSRFIL	soluble
MSLYKLIALDMDGTLLNSQKQISPRTKQAIAQARQQGIQVVLASGRPLDGMRSKLEELHLTTENDYVLYYNGSMVANVGTGEIIHQQIIDGKAAKRVATLAQEFGLNTHAFSQIHGLITPKTSQYTEVEASINGLNITEMDFAQLADDHPIIKAMIVGEPEKLTQAIAQLPAQWREEFTVVQSAPFFLEFLNTGSNKGIGVQAIAAHLGIQASEVICMGDAENDHHMLQYAGLGIAMANAMEETKHIADHITLSNDHDGVAVAIERFALGCFSEGHHHHHH	soluble
MGSDKIHHHHHHMVEIKKICCIGAGYVGGPTCSVIAHMCPEIRVTVVDVNEARINAWNSPTLPIYEPGLKEVVESCRGKNLFFSTNIDDAIREADLVFISVNTPTKTYGMGKGRAADLKYIEACARRIVQNSNGYKIVTEKSTVPVRAAESIRRIFDANTKPNLNLQVLSNPEFLAEGTAIKDLKNPDRVLIGGDETPEGQKAVRALCAVYEHWVPKEKILTTNTWSSELSKLAANAFLAQRISSINSISALCEATGADVEEVATAIGMDQRIGNKFLKASVGFGGSCFQKDVLNLVYLCEALNLPEVARYWQQVIDMNDYQRRRFASRIIDSLFNTVTDKKIAILGFAFKKDTGDTRESSSIYISKYLMDEGAHLHIYDPKVPREQIVVDLSHPGVSADDQVSRLVTISKDPYEACDGAHALVICTEWDMFKELDYERIHKKMLKPAFIFDGRRVLDGLHSELQTIGFQIETIGKKVSSKRIPYTPGEIPKFSLQDPPNKKPKV	not soluble
MGRRRGFLTMRIPRIYHPEPLTSHSHIALCEDAANHIGRVLRMGPGQALQLFDGSNQVFDAEITSASKKSVEVKVLEGQIDDRESPLHIHLGQVMSRGEKMEFTIQKSIELGVSLITPLFSERCGVKLDSERLNKKLQQWQKIAIAACEQCGRNRVPEIRPAMDLEAWCAEQDEGLKLNLHPRASNSINTLPLPVERVRLLIGPEGGLSADEIAMTARYQFTDILLGPRVLRTETTALTAITALQVRFGDLGLEHHHHHH	not soluble
MGSDKIHHHHHHMTERFQQKNISVPDGIWIMKQTWNDVLFAHWPVDVSILRALVPSVLELDTYNGQAWISMLPFMLTNLRARYLPVIPGARAFPELNLRTYVTYKGKPGIYFFSLDADHRLAVLGARTFFHLPYFYADMKSEKNGDAIDYVSKRKNDKEAAFHAAYRPISAPFTAEKDSLDYWLTDDTGSTPLIAISSITKTSIIIRGCCKTPKQKFQSIR	not soluble
MRTMIYKILTGCYIVAALVLVAACNDGLDIQTKYPFTVETMPVPKELKVNETAEIRCELKREGRWEDTRYTIRWFLFDGEGTLKLDDGTVLLPNDRYPLEKETFRLYYTPLSDEQSGFTVWVEDSDGQAVELEFDFNADNDKEDGYGTELEHHHHHH	soluble
MSLDQEQNVSLLVAGDHELLRDAISEILRREGGFSVEVTGSREGVLKQIEERGGFDVILLDLQMPGMSGLDSLREVATSNANGAVAILAGELTRDVVMSAFKAGARGYIPKTLPLRALPIALRLIASGESYVPAWLTNGGGTTQADGPSFDLLPEELQILEEVSDGRTNKQIAFTLNVTEGAIKMKMRAICMKLGAKNRTHAVVIARQHMMLREGHHHHHH	soluble
MSLEGRSRLWPKTSAPGAFSRRSPERSWPSRRVQRHFPAKEGREAASAAALRASRRSMVGLTVAVRTGPCDLATRKTKSRWATGSDMTKSSKATSLEILACDAGWRNYHFVKLTTDDGIVGWSEFDEGFGSPGVGAAIQRLSTRIIGQNIFQHERIYAELFAATRPAAGGVVAQALGAIENAMLDAKAKCLGVPCYELLGGKIRDRVRVYWSHCATWRINHPSWYKPPIESLDGVKAMGREVREKKFTALKTNIFSYDDGKPTGWRPGFGSPFAPEINVDRKILRDLRMHLEAIRDGAGPDVDILLDCNFNAKTEGYLKILRTIADLDMFWIEIDSFNPEALGYIRRQSPHPISSCETLLGLREFLPYFHEQAMDVAIIDTPWNGVWQSMKIASAAEAFEVNVAPHNFYGHLCSMMNAHFCAAVPNLRIMEIDIDRLSWDRELFTHEPEIEDGHLIIPDRPGWGTEPNEEALRAHPPKTNGGLLNYGRKSEGHHHHHH	not soluble
VKNILLLDSEGKRVAVKYYSDDWPTNAAKLSFEKYVFSKTSKTNARTEAEITLLDSNIIVYKFAQDLHFFVTGGENENELILASVLQGFFDAVALLLRSNVEKMEALENLDLIFLCLDEMVDQGVVL	not soluble
MGSDKIHHHHHHEEGTSPINENTSNLPVSATADAQLKFAKLLSQAASGSIEVRNFLKKEALVQFDNDYDIFYPLIKDKKVFGNQSFRDILLSYCKEENELSQIEQSLPLLNIMVPDLTLFWDFNATTWDTSDKEISVLCRDDKNNTLYENGENIGNMTNGDIPGFPCLVVKNNERMKITSVNTRSGEATYEFISDAFDGSKKVQTRHYDADNDLEATEDLNKYVSKDVVATAINAWREFKNVPNACQRDYIYYGINKTNTPGSLNRNIREKLYRFRISATAFGRIADADGDQRLQDLTQTKRYLSNEEILQNIWTDGNFEFRFKSYIAGETNKDAMEHLLTFSVKAKDVFSIEKIHLHHKNGTAFRQSKNFYSVDINNLRSKWIYPEKLEPNKDNQVFTLPWDLYNKALSIHMYVEEFDVDQTIEKTITVVNEFTNKADFSIEGGGSIDSVKLSAKLGYGFSHTNTTTSSTKVTTTVGSDELGTLSFFFYDPIIRAESNNTYKLYDVSSGDVTATILPINLIITR	not soluble
MAHHHHHHMRKIYIAGPAVFNPDMGASYYNKVRELLKKENVMPLIPTDNEATGALDIRQKNIQMIKDCDAVIADLSPFRGHEPDCGTAFEVGYAAALNKMVLTFTSDRRNMREKYGSEVDKDNLRVEGFGLPFNLMLYDGVEVFDSFESAFKYFLANFPSK	soluble
MIIDIHGHYTTAPKALEDWRNRQIAGIKDPSVMPKVSELKISDDELQASIIENQLKKMQERGSDLTVFSPRASFMAHHIGDFNVSSTWAAICNELCYRVSQLFPDNFIGAAMLPQSPGVDPKTCIPELEKCVKEYGFVAINLNPDPSGGHWTSPPLTDRIWYPIYEKMVELEIPAMIHVSTSCNTCFHTTGAHYLNADTTAFMQCVAGDLFKDFPELKFVIPHGGGAVPYHWGRFRGLAQEMKKPLLEDHVLNNIFFDTCVYHQPGIDLLNTVIPVDNVLFASEMIGAVRGIDPRTGFYYDDTKRYIEASTILTPEEKQQIYEGNARRVYPRLDAALKAKGKLEHHHHHH	soluble
MGSDKIHHHHHHMTTAQHTVEKIGGTSMSNYEAVRDNIIIGKRKKSDLYQRIFVVSAYGGVTNELLEHKKTGEPGVYALFADAESDWAWGDDLTKLIQLLTDINGELFADPMLKQQADQFITDRIEGVRGCLIDLQRLCSYGQFQLEEHLLTVREMLAGIGEAHSAFNTALKLQQEGINARFVDLTGWRDSELLPLDEKLKQAFDAIDLSRELPIVTGYAQCKEGLMRTFDRGYSEMTFSRTAVITNAREAIIHKEYHLSSADPNIVGEDKVVPLGRTNYDVADQLANLGMEAIHPRAGKGLRQNEIPLRVMNTFEPEHTGTLITGDYVSEKPQVEIVAGAKGVFAIEVFDQDMQGEPGSDRRILDVLSRFKVRFMSKDTNANTITHYVDTTLKHVKRVVKALEEEFPNAEISTRKVALVSAIGSDMKVPGILARSVKSLADNDISVLAIHQCMRQVDIQFVVDEDKYDQAIVALHGALIEPHNHEYAIVAASTTAG	not soluble
MSLQTIKIGLPVPLSGPYGAEAQDQVRNAELAVKQFNDAGGLDGRKAQLLVRDDRLNPAEAATRALELIEKDGVNFIVGGLSAATQLSINNVTRQRKKLYISISQSDAINEAADASPYTFHEALNPHMTTQAVGKYVFKPGMRVAFLTADYAYGHEMTRGFTEVARQQGAEVVGEVKHPLGASDYSAFLPRLKALNPDVLVFNNFGADNRISIKQAADFGMKRNIRFVTPILTYTARVSGGAATYQDVVGGTQYYWAIQDSVPSAKAFNAAFQAENNGRFPSDYGAMAYSAVKSLLLAVRDAGSTDTDEVAAALRKLKYDTYKGAQYYRGCDQQSVQSVLVIQSVGKDNAHPDEVFKLLHTEAPSEGHHHHHH	soluble
MSLGKPLIALGLEGSANKLGVGIILHDTNGSAKILANVRHTYITPPGQGFLPSDTAKHHRAWIIPLIKQAFAEAKISFKDIDCICFTKGPGIGAPLNSVALCARMLSLIHKKPLVAVNHCIGHIEMGREITGAQNPVVLYVSGGNTQVIAYSEKKYRIFGETLDIAIGNCLDRFARIIGLSNAPSPGYNIMQEAKKGKRFIELPYTVKGMDCSFSGLLSGVEAAATELLDPKNPSSVTKQDLCYSLQETGFAMLVEITERAMAHIRADSVLIVGGVGCNERLQQMMAEMSSDRGADVFSTDERFCIDNGIMIAQAGLLAYKTGDRCAVAESTITQRYRTDDVYISWRDEGHHHHHH	soluble
DKKLAIVIHDNPDPDAISSGLALKEIAKSLGVEASILYHGRIGHQENKAFVNLLGIDLGKMEEHDLKDFDEIALIDCSIPGVNNMVPPNSYVGIVIDHHPPGETEIKAEYIDIRPNFGATATIMTKYLQQLNINISKTLATALLYGIRTDTQDFKRKTDPADLSAASYLYPLSNHGILDQLEQPSMAI	not soluble
MLEEFLPSLIAHTPRQSARLIVADNGSTDDSVEFLRRQYPQVELILFPENYGFAEGYNRAIAQTECDCVVLLNSDVEVSEGWLDAPLALLQERSDVAAVQPKIRALRDKHAFEYAGAAGGYVDRWGYPFCRGRIFDAVETDTGQYDDIAEVFWASGAALFIRRQVYMAVGGLDPRFFAHQEEIDLCWRLHSRGWR	not soluble
MGSDKIHHHHHHMTAEDTYKTIVEPSEGIYTEKRSKFIAIALPVRTLDEIKAHLETYQKKYYDARHVCYAYMLGAARKDFRANDNGEPSGTAGKPILGQINSNELTDILIIVVRYFGGIKLGTSGLIVAYKAAAAEAISAATIIEKTVDEEVTVMFEYPFMNDIMRIVKEEEPEILSQSYDMDCSMTLCIRRSMMPKLRARLEKVETARILDEE	not soluble
